Measured values taken from patent US20140065154A1, “TLR3 BINDING AGENTS” (INNATE PHARMA, priority 2011, published 2014).
Where two headings read alike, the source gives them in different places. Each block holds one molecule with its values, some of them ahead of it.

Assays:
[1] = cited from earlier work
[2] = test system: COPD mouse model; test: In vivo efficacy model of COPD (Elastin and LPS); set-up: species or system mice; details: drug combination study
Description: Three groups of 10 male mice were treated as follows: • 1 group of 10 mice with a vehicle. • 1 group of 10 mice with the anti-mouse TLR328G7 antibody administration (i.p., 500 μg/per mouse) on days 0, 3, 7, 10, 14, 17, 21 and 24. • 1 group of 10 mice with the positive control roflumilast (approved as […]; antagonist of PDE-4) (oral, 15 mg/kg, five times per week). All mice were treated at days 0, 7, 14 and 21 with Elastin and LPS (i.n.), to induce COPD. At day 28 mice were sacrificed for analysis. The cellular infiltrates into airways was measured by analysis of bronchoalveolar lavage (BAL) fluid by differential cell count on day 28. The oxygenation of venous blood was measured by gasometry on day 28. The level inflammatory mediators in BALF, through the analysis for protein levels of TNF-alpha, IL-6, IL-17A and IP-10 was performed by multiplex assay. […] Statistical analysis was performed on all data utilizing a Student's t test: '*' p<0.05; '**' p<0.005; '***'p<0.0005. […] All mice were treated with Elastin and LPS (i.n.), to induce COPD and sacrified as in study A. The cellular infiltrates into airways was measured by analysis of bronchoalveolar lavage (BAL) fluid by differential cell count as in Study A.

[3] = biological target: T1, recombinant human TLR3 extracellular domain (R&D Systems) (human, UniProt O15455 27-711); test: SPR (Biacore T100), rhTLR3 immobilised on CM5 chip, bivalent affinity, pH 7.2
T1 construct: also called rhTLR3; human rec TLR3; not shown: His tag (R&D #1487-TR)

[4] = biological target: T2, wild type human TLR3 expressed in 293T cells (human, UniProt O15455 24-904); test: cell-based or functional assay
[5] = biological target: T2, wild type human TLR3 expressed in 293T …; test: cell-based or functional assay; remark: listed apart in the source
[6] = biological target: T1, recombinant human TLR3 extracellular …; test: SPR (Biacore T100), rhTLR3 immobilised on CM5 chip, bivalent affinity, pH 5.6
[7] = biological target: T3, TLR3 (Homo sapiens, UniProt O15455); test: 293T-TLR3-ISRE luciferase reporter gene assay; format: cell-based; set-up: host or cells: 293T (ATCC #CRL-1573), stably carrying pISRE-luc; details: dsRNA TLR3 agonist
From the text: A reporter gene assay using as promoter ISRE (IFN-stimulated response element) and as reporter gene and protein luciferase was set up. A 293T cell line (ATCC, #CRL-1573) was stably transfected with pISRE-luc plasmid (#219089—Stratagene), further selected by cloning as inducing optimal response to IFN-alpha stimulation and referred to as control 293T-ISRE. This cell line was further stably transfected with pUNO-humanTLR3 plasmid (#puno-htlr3—InVivogen) or pUNO-mouseTLR3 plasmid (#puno-mtlr3—InVivogen) and referred to as 293T-TLR3-ISRE and 293T-mTLR3-ISRE respectively. On day 0, cells are seeded at 4×10^5 cells/mL in complete culture medium in 96-well culture plate (100 μl/well). Cells are first incubated at 37° C. for 20 hours, then 50 μL of medium are discarded and cells are activated with 100 μL/well final of increasing amounts of polyAU together with various concentrations of anti-TLR3 antibodies. Cells incubated with fresh medium will be used as background luciferase activity. Cells are incubated at 37° C. for 6 hours. 100 μL of freshly thawed Steady Glo (Promega) are added to each well, plates were incubated 10 min at RT in the dark and the light emitted in each well is quantified as Count Per Second (CPS) on a gamma-counter (TopCount) apparatus.
Antibodies were tested for inhibition of TLR3 signaling in a luciferase based reporter gene activity (293T-TLR3-ISRE). […] Briefly, dsRNA TLR3 agonists were used to induce TLR3 signaling in the reporter assay in the presence of anti-TLR3 antibodies, and TLR3 signaling was assessed.
In a further set of experiments, 293-huTLR3 cells were incubated with different concentrations of the anti-TLR3 mAbs for 1 to 2 hours (see FIG. 1A; mAb concentration is represented in axis in μg/ml on a logarithmic scale) followed by the addition to the medium of the TLR3 agonist polyAU at a concentration of 300 μg/ml. Luciferase expression was measured after 6 h. […]
Similarly the kinetics of inhibition of the antibodies was evaluated in 293T-TLR3 luciferase assay. […] Luciferase expression was measured at 6 h post poly(A:U) addition. […]

[8] = biological target: T3, TLR3; test: SPR competition assay with polyAU in acidic buffer; format: binding; set-up: purchased R&D Systems; details: pH 5.6
Description: (a) General Biacore T100 methods. SPR measurements were performed on a Biacore T100 apparatus (Biacore GE Healthcare) at 25° C. In all Biacore experiments HBS-EP+ buffer (Biacore GE Healthcare) or 10 mM sodium acetate pH 5.6, 150 mM NaCl, 0.05% P20 served as running buffer and sensorgrams were analyzed with Biaevaluation 4.1 and Biacore T100 Evaluation software. Recombinant human and mouse TLR3 were purchased from R&D Systems. (b) Protein immobilization. Recombinant TLR3 protein was immobilized covalently to carboxyl groups in the dextran layer of a Biacore Series 5 Sensor Chip CM5 (chip). The chip surface was activated with EDC/NHS (0.2M N-ethyl-N′-(3-dimethylaminopropyl) carbodiimidehydrochloride, 0.05M N-hydroxysuccinimide (Biacore GE Healthcare)). […] Deactivation of the remaining activated groups was performed using 100 mM ethanolamine pH 8 (Biacore GE Healthcare). (c) Antibody binding analysis was run using HBS-EP+ (neutral pH). Antibodies at a concentration of 10 μg/ml were injected for 2 min at a constant flow rate of 10 μl/min over the immobilized proteins and allowed to dissociate for 3 min before regeneration by a ten second injection of 10 mM NaOH, 500 mM NaCl regeneration buffer. Blank correction was performed on line by co-injecting the soluble antibodies onto the reference dextran flow cell. (d) Competition assay in acidic buffer (pH 5.6). Flow rate was set to 10 μl/min, the first antibody at a concentration of 50 μg/ml (or polyAU at 100 μg/ml) was injected for 2 min, 3 times successively in order to saturate the rhTLR3 surface. The second antibody (or polyAU at 100 μg/ml when the polyAU was added after first antibody) was then injected for 2 min also at 50 μg/ml and allowed to dissociate for 3 min before regeneration by a 15 second injection of 10 mM NaOH, 500 mM NaCl regeneration buffer. Blank correction was also performed on line and the curve using the saturating antibody (or neucleic acid) followed by an injection of buffer subtracted to remove the signal due to the dissociation of the first complex. The resulting signal was compared to that obtained by the injection of the second antibody directly onto the rhTLR3 surface.
Competition assays were conducted according to the methods described for SPR, item d) at pH 5.6.
Buffer (followed by polyAU) is represented in the lower line, while 31C3 followed by polyAU is in the upper line.

Molecule: Etanercept
- half-life ([1]; after a 25 mg dose): 70 h

Molecule: Adalimumab
- half-life ([1]; after a standard 40 mg dose): approximately 2 weeks
- half-life (range) ([1]; after a standard 40 mg dose): 240 to 480 h

Molecule: O=C(Nc1c(Cl)cncc1Cl)c1ccc(OC(F)F)c(OCC2CC2)c1 [Roflumilast, roflumilast]
- BAL macrophages and lymphocytes [2]: decreases in macrophages
- BAL neutrophil infiltration [2]: decreased infiltration of neutrophils into the airways

- Kd [3]: 0.138 nM
- IC50, luciferase reporter inhibition test with 100 µg/ml of polyAU [4]: < 5 µg/mL
- IC50 (µg/ml), inhibition of polyAU (300 µg/ml)-induced luciferase expression in 293-huTLR3 ISRE reporter cells [5]: 1.83 µg/mL
- Kd [6]: 0.0103 nM
B1: antibody 23C8 (antibody, V domains shown)
VH: EVQLQQSGPELVKPGASVKISCKASGYSFTGYFMHWVKQSHVKSLEWIGRINPYNGATSYNQNFKDKASLTVDKSSSTSYMELHSLTSEDSAVYYCVRDDGGNYPFDYWGQGTTLTVS
VL: DIQMTQSPASLSASVGETVTITCRASENIYSYLAWYQQKQGKSPQLLVYYAKTLAEGVPSRFSGSGTGTQFSLKINSLQPEDFGSYYCQHHYGTPYTFGGGTKLEIK
notes: also called 23C8.4

- Kd [3]: 0.65 nM
- IC50 (µg/ml), inhibition of polyAU (300 µg/ml)-induced luciferase expression in 293-huTLR3 ISRE reporter cells [5]: 5.56 µg/mL
- Kd [6]: 0.335 nM
B2: antibody 28F11 (antibody, V domains shown)
VH: EVQLQQSGPELVKPGASVKISCKASGYSFTGYYIHWVKQSHVKSLEWIGRINPYYGATSYNQNFKDKANLTVDKSSSTAYMELHSLTSDDSAVYYCARSTKLGYLDYWGQGTTLTVS
VL: DIQMTQSPASLSASVGETVTITCRASENIYSNLAWYQQKQGKSPQLLIYNAKTLAEGVPSRFSGSGSGTQYFLKINSLQPEDFGSYYCQHHYGTPFTFGGGTKLEIK

- Kd [3]: 0.00301 nM
- IC50, luciferase reporter inhibition test with 100 µg/ml of polyAU [4]: < 5 µg/mL
- Kd [6]: 0.0517 nM
B3: antibody 34A3 (antibody, V domains shown)
VH: EIQLQQSGPELVKPGASVKVSCKASGYVFTTYSIYWVKQSHGKSLEWIGYIDPYNGDTSYNQKFKGKATLTVDKSSSTAYMHLNSLTSEDSTVYYCAREGNYYGYFDYWGQGTTLTVS
VL: QIVLTQSPALMSASPGEKVTMTCSASSSVSYMFWYQQKPRSSPKPWIYLTSNLASGVPARFSGSGSGTSYSLTISSMEAEDAATYYCQQWTGNPPTFGGGTKLEIK
notes: Mouse hybridoma antibody (Balb/c, immunization series #2); also called 34A3.5; printed 34A4, 32A4 and 34A2 in some places

B4: 23C8: anti-human TLR3 monoclonal antibody, IgG1; VH SEQ ID NO: 26, VL SEQ ID NO: 27 (antibody, listed as Mus musculus, V domains shown)
VH: MGWSWIFLFLLSGTAGVLSEVQLQQSGPELVKPGASVKISCKASGYSFTGYFMHWVKQSHVKSLEWIGRINPYNGATSYNQNFKDKASLTVDKSSSTSYMELHSLTSEDSAVYYCVRDDGGNYPFDYWGQGTTLTVS
VL: MSVPTQVLGLLLLWLTGARCDIQMTQSPASLSASVGETVTITCRASENIYSYLAWYQQKQGKSPQLLVYYAKTLAEGVPSRFSGSGTGTQFSLKINSLQPEDFGSYYCQHHYGTPYTFGGGTKLEIK
modifications: SIGNAL (1)..(19); SIGNAL (1)..(20)
- inhibition of TLR3 signaling [7]: strongly inhibited TLR3 signaling in a dose dependent fashion
- antibody binding to TLR3 chip previously incubated with polyAU [8]: able to bind TLR3 even in the presence of polyAU

B5: 28F11: anti-human TLR3 monoclonal antibody, IgG1; VH SEQ ID NO: 18, VL SEQ ID NO: 19 (antibody, listed as Mus musculus, V domains shown)
VH: MGWSWIFLFLLSGTAGVLSEVQLQQSGPELVKPGASVKISCKASGYSFTGYYIHWVKQSHVKSLEWIGRINPYYGATSYNQNFKDKANLTVDKSSSTAYMELHSLTSDDSAVYYCARSTKLGYLDYWGQGTTLTVS
VL: MSVPTQVLGLLLLWLTGARCDIQMTQSPASLSASVGETVTITCRASENIYSNLAWYQQKQGKSPQLLIYNAKTLAEGVPSRFSGSGSGTQYFLKINSLQPEDFGSYYCQHHYGTPFTFGGGTKLEIK
modifications: SIGNAL (1)..(19); SIGNAL (1)..(20)
- inhibition of TLR3 signaling [7]: strongly inhibited TLR3 signaling in a dose dependent fashion
- antibody binding to TLR3 chip previously incubated with polyAU [8]: able to bind TLR3 even in the presence of polyAU
